Measurements as given in patent publication US20220411495A1, “POSITIVE ALLOSTERIC MODULATORS OF THE CALCIUM-SENSING RECEPTOR” (VIB VZW, priority 2019, published 2022).

Molecular target: T1, human CaSR wild type (hCaSR WT) (Homo sapiens, UniProt P41180, E1011Q)
T1 construct: mGlu5 signal peptide (N, cleaved yes); expressed in transfected cells
T1 sequence (P41180 20-1078 E1011Q): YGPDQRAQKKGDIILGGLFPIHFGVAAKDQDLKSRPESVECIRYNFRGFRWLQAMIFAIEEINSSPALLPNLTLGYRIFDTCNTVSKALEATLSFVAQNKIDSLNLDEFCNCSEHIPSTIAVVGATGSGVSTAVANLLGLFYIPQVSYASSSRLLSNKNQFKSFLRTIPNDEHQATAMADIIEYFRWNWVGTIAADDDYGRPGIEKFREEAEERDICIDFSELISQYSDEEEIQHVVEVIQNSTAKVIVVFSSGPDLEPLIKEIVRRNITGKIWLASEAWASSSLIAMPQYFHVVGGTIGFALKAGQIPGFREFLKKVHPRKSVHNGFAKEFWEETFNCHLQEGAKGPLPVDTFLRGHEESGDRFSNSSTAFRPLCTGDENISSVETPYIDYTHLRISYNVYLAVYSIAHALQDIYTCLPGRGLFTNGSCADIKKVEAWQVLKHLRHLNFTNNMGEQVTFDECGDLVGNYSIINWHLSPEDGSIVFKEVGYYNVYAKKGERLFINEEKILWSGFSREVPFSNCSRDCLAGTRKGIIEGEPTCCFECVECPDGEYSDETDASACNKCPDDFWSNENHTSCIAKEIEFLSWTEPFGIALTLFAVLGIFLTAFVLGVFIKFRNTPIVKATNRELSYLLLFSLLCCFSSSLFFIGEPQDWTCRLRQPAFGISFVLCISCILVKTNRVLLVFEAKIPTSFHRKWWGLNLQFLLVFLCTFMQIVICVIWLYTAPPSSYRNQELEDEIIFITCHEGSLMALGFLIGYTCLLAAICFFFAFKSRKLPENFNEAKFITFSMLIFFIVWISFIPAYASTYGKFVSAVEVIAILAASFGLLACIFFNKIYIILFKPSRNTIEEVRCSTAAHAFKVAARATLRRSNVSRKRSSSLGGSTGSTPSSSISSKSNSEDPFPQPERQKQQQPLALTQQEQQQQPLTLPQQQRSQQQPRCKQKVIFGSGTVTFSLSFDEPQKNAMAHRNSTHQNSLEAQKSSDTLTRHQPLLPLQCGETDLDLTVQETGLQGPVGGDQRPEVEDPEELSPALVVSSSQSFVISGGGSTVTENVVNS
Assay: IP1 accumulation assay, Flp-In HEK293 HA-hCaSR WT cells
Type: cell-based
Method: Nanobodies were successfully purified by immobilized metal ion affinity chromatography (IMAC) and size exclusion chromatography (SEC) prior to pharmacological characterization (FIG. 1). Each nanobody was initially screened for Gq/11 activity in the Cisbio IP1 accumulation assay as this is the primary signaling pathway of CaSR (Chavez-Abiega et al., 2020). Whole HEK293 HA-hCaSR WT cells were pre-incubated for 30 minutes at 37° C. with a fixed nanobody concentration (5 μM) prior to stimulation with the endogenous ligand Ca^2+. The well characterized positive allosteric modulator (PAM) chemical NPS R-568 and negative allosteric modulator (NAM) chemical NPS 2143 were added as reference compounds. […] No nanobodies with agonist or NAM activity were observed when all nanobodies screened in the absence or in the presence of EC80 Ca^2+, respectively (FIGS. 4A and 4B). […] Except for CaSR Nb5, the same nanobodies acted as PAMs when ERK1/2 phosphorylation was measured in the presence of EC20 Ca^2+ (FIG. 2B). Again, none of the nanobodies elicited an agonist or NAM response (FIGS. 5B and 5C).
All cell lines utilized in this study were grown at 37° C. and 5% CO2. The HEK293A (RRID: CVCL_6910) and stable Flp-In HEK293 cells were cultured in Dulbecco's Modified Eagle Medium (DMEM, #31966021) supplemented with 10% dialyzed Fetal Bovine Serum (dFBS) and 1% 10,000 units/mL penicillin and 10,000 μg/mL streptomycin mixture (pen/strep). The stable Flp-In CHO cells were cultured in F-12K medium (#21127022) supplemented with 10% dFBS and 1% pen/strep. Additionally, the stable Flp-In HEK293 and Flp-In CHO cell lines were cultured in the presence of respectively 200 and 500 μg/mL hygromycin B. For pharmacological characterization, Flp-In HEK293 HA-hCaSR WT cells were seeded in poly-D-lysine-coated clear 96 well tissue culture plates (Corning, Corning, N.Y., USA) at a density of 50,000 cells/well 18 h prior to assay. Experiments with HA-rCaSR WT and HA-hCaSR S170A required transient transfection of HEK293A cells 24 h prior to assay. DNA construct and Lipofectamine 2000 were diluted in Opti-MEM and mixed together after 5 minutes incubation at room temperature. For HA-rCaSR WT, 30 ng/well rCaSR DNA diluted in 25 μL/well Opti-MEM was mixed with 0.25 μL/well Lipofectamine 2000 in 25 μL/well Opti-MEM. For HA-hCaSR S170A, 40 ng/well […] DNA diluted in 25 μL/well Opti-MEM was mixed with 0.25 μL/well Lipofectamine 2000 in 25 μL/well Opti-MEM. The DNA:Lipofectamine 2000 mixtures were incubated 20 minutes at room temperature after which 50 μL/well was added to a poly-D-lysine-coated clear 96 well tissue culture plate. Next, 100 μL/well of a 400,000 cells/mL HEK293A cell solution prepared in culture media was added and the plate was placed at 37° C. and 5% CO2 (final cell density 40,000 cells/well).
Inositol monophosphate (IP1) accumulation was measured using the commercially available HTRF® IP1 accumulation kit (Cisbio Bioassays, Codolet, France) and an EnVision multimode plate reader (PerkinElmer, Waltham, Mass., USA). Unless stated otherwise, the cells were washed once with 100 μL/well assay buffer and stimulated for 30 minutes at 37° C. with 50 μL/well ligand(s) diluted in assay buffer supplemented with 20 mM LiCl. Following stimulation, the cells were washed once with 100 μL/well and lysed for 30 minutes at room temperature with 30 μL/well lysis buffer provided with the kit. The lysed cells were diluted 1:2 with assay buffer after which 10 μL/well was pipetted to a white 384-well OptiPlate (PerkinElmer, Waltham, Mass., USA). Next, 10 μL of a detection solution consisting of 2.5% IP1-d2 conjugate and 2.5% anti-IP1 antibody diluted in assay buffer was added to each well. Fluorophore emissions were measured after the plate was stored in the dark for 1 h. The 615/665 nm emission ratios measured upon excitation at 340 nm were converted to IP1 concentrations with an IP1 standard curve according to the manufacturer's instructions.

B1: Nb37: llama-derived CaSR-specific nanobody acting as PAM, SEQ ID NO:4 (protein)
VHH: QVQLVESGGGLVQPGDSLRVSCAASGGSFRSYAMAWFRRAPGKEREFVAAMSGTYGSTIYADSMKGRFTISRDNAKKMVYLRMNSLRAEDTAVYYCAGYYSGAYYGTPKTDYTEYDSWGQGTQVTVSS
modifications: CaSR Nb37
Q: For B1, which “Max. response (fold over basal ± S.E.M.), human ortholog” value (IP1 accumulation at EC20 Ca2+) is on record?
A: 4.04 ± 0.32 fold over basal

Q: What about the “Potency (pEC50 ± S.E.M.), human ortholog” value (IP1 accumulation at EC20 Ca2+, three independent experiments in triplicate) of the same molecule?
A: 6.22 ± 0.05

Q: What about the “PAM activity in IP1 accumulation screen” value (fixed nanobody concentration 5 μM, EC20 Ca2+, 30 min pre-incubation) of the same molecule?
A: potentiated IP1 accumulation
